Data reported in US20060058231A1 (Xencor, published 2006).
Positions count from the first letter of the chain named.

T1: BMPRII receptor-Fc fusion (UniProt Q13873 27-151, limits assumed)
T1 construct: BMP receptor-Fc fusion used at 5 ug/mL
T1 sequence (looked up): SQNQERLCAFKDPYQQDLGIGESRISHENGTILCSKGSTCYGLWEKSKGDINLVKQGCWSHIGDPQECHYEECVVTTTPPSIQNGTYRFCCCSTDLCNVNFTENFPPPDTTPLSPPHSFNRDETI

T2: BMPRIb receptor-Fc fusion (UniProt O00238 14-126)
T2 construct: BMP receptor-Fc fusion used at 5 ug/mL; also called ALK-6
T2 sequence (looked up): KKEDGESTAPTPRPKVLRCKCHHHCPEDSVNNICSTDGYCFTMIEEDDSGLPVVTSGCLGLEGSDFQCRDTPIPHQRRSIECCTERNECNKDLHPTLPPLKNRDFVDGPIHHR

B1: BMP-7 variant L90G (ligand)
chain: STGGKQRSQNRSKTPKNQEALRMASVAENSSSDQRQACKKHELYVSFRDLGWQDWIIAPEGYAAYYCEGECAFPLNSYMNATNHAIVQTGVHFINPETVPKPCCAPTQLNAISVLYFDDSSNVILKKYRNMVVRACGCH
notes: In conditioned media; numbering on mature BMP-7
B2: BMP-7 variant Q53R (ligand)
chain: B1 chain with Q53R, G90L
notes: as for B1
B3: BMP-7 variant L90T (ligand)
chain: B1 chain with G90T
notes: as for B1
B4: BMP-7 variant Q53S (ligand)
chain: B1 chain with Q53S, G90L
notes: as for B1
B5: BMP-7 variant N76T (ligand)
chain: B1 chain with N76T, G90L
notes: as for B1
B6: BMP-7 variant N76Y (ligand)
chain: B1 chain with N76Y, G90L
notes: as for B1
B7: BMP-7 variant N76S (ligand)
chain: B1 chain with N76S, G90L
notes: as for B1
B8: BMP-7 variant R48N (ligand)
chain: B1 chain with R48N, G90L
notes: as for B1
B9: BMP-7 variant R129K (ligand)
chain: B1 chain with G90L, R129K
notes: as for B1
B10: BMP-7 variant R129S (ligand)
chain: B1 chain with G90L, R129S
notes: as for B1
B11: BMP-7 variant M23S (ligand)
chain: B1 chain with M23S, G90L
notes: as for B1
B12: BMP-7 variant N76D (ligand)
chain: B1 chain with N76D, G90L
notes: as for B1
B13: BMP-7 variant Q53K (ligand)
chain: B1 chain with Q53K, G90L
notes: as for B1
B14: BMP-7 variant R129N (ligand)
chain: B1 chain with G90L, R129N
notes: as for B1
B15: BMP-7 variant M23N (ligand)
chain: B1 chain with M23N, G90L
notes: as for B1
B16: BMP-7 variant Q53E (ligand)
chain: B1 chain with Q53E, G90L
notes: as for B1
B17: BMP-7 variant Q53G (ligand)
chain: B1 chain with Q53G, G90L
notes: as for B1
B18: BMP-7 variant L90P (ligand)
chain: B1 chain with G90P
notes: as for B1
B19: BMP-7 variant L90H (ligand)
chain: B1 chain with G90H
notes: as for B1
B20: BMP-7 variant R48Q (ligand)
chain: B1 chain with R48Q, G90L
notes: as for B1
B21: BMP-7 variant R48H (ligand)
chain: B1 chain with R48H, G90L
notes: as for B1
B22: BMP-7 variant R129D (ligand)
chain: B1 chain with G90L, R129D
notes: as for B1
B23: BMP-7 variant Q53D (ligand)
chain: B1 chain with Q53D, G90L
notes: as for B1
B24: BMP-7 variant N76A (ligand)
chain: B1 chain with N76A, G90L
notes: as for B1

molecular target: T3, ActRIIa receptor-Fc fusion (UniProt P27037 20-134, limits assumed); experiment: ELISA-like plate assay, captured BMP-7 from conditioned media, receptor-Fc detection
T3 construct: BMP receptor-Fc fusion used at 5 ug/mL
T3 sequence (P27037 20-134 limits assumed): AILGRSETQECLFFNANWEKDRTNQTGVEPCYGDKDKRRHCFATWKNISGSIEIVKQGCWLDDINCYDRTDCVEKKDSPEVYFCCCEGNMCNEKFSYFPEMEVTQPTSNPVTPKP

| Binder | ActRIIa binding (relative to wild type = 1.0) |
| --- | --- |
| B1 | 0.87 relative to wild type |
| B2 | 0.81 relative to wild type |
| B3 | 0.66 relative to wild type |
| B4 | 1.04 relative to wild type |
| B5 | 1.11 relative to wild type |
| B6 | 0.92 relative to wild type |
| B7 | 0.99 relative to wild type |
| B8 | 0.93 relative to wild type |
| B9 | 1.12 relative to wild type |
| B10 | 0.62 relative to wild type |
| B11 | 2.2 relative to wild type |
| B12 | 1.13 relative to wild type |
| B13 | 0.73 relative to wild type |
| B14 | 1.1 relative to wild type |
| B15 | 0.94 relative to wild type |
| B16 | 0.98 relative to wild type |
| B17 | 0.99 relative to wild type |
| B18 | 0.75 relative to wild type |
| B19 | 0.47 relative to wild type |
| B20 | 0.8 relative to wild type |
| B21 | 1.02 relative to wild type |
| B22 | 1.13 relative to wild type |
| B23 | 0.89 relative to wild type |
| B24 | 0.96 relative to wild type |

molecular target: T1, BMPRII receptor-Fc fusion; experiment: as above

| Binder | BMPRII binding (relative to wild type = 1.0) |
| --- | --- |
| B1 | 0.28 relative to wild type |
| B2 | 0.96 relative to wild type |
| B3 | 0.29 relative to wild type |
| B4 | 1.26 relative to wild type |
| B5 | 0.97 relative to wild type |
| B6 | 0.6 relative to wild type |
| B7 | 0.98 relative to wild type |
| B8 | 0.13 relative to wild type |
| B9 | 0.78 relative to wild type |
| B10 | 0.26 relative to wild type |
| B11 | 2.41 relative to wild type |
| B12 | 0.87 relative to wild type |
| B13 | 0.14 relative to wild type |
| B14 | 1.4 relative to wild type |
| B15 | 0.9 relative to wild type |
| B16 | 0.72 relative to wild type |
| B17 | 1.37 relative to wild type |
| B18 | 0.17 relative to wild type |
| B19 | 0.2 relative to wild type |
| B20 | 0.15 relative to wild type |
| B21 | 0.58 relative to wild type |
| B22 | 1.86 relative to wild type |
| B23 | 1.01 relative to wild type |
| B24 | 0.95 relative to wild type |

molecular target: T4, BMPRIa receptor-Fc fusion (UniProt P36894 24-152, limits assumed); experiment: as above
T4 construct: also called ALK-3
T4 sequence (P36894 24-152 limits assumed): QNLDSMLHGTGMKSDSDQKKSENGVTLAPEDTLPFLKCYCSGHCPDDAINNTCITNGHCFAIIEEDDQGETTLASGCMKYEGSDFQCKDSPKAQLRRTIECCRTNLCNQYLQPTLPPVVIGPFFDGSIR

| Binder | BMPRIa binding (relative to wild type = 1.0) |
| --- | --- |
| B1 | 0.55 relative to wild type |
| B2 | 1.26 relative to wild type |
| B3 | 0.48 relative to wild type |
| B4 | 0.66 relative to wild type |
| B5 | 0.94 relative to wild type |
| B6 | 0.46 relative to wild type |
| B7 | 0.76 relative to wild type |
| B8 | 1.87 relative to wild type |
| B9 | 0.69 relative to wild type |
| B10 | 0.32 relative to wild type |
| B11 | 0.88 relative to wild type |
| B12 | 0.84 relative to wild type |
| B13 | 0.7 relative to wild type |
| B14 | 0.89 relative to wild type |
| B15 | 0.98 relative to wild type |
| B16 | 2.3 relative to wild type |
| B17 | 3.7 relative to wild type |
| B18 | 0.46 relative to wild type |
| B19 | 0.36 relative to wild type |
| B20 | 1.06 relative to wild type |
| B21 | 3.15 relative to wild type |
| B22 | 0.93 relative to wild type |
| B23 | 2.2 relative to wild type |
| B24 | 0.79 relative to wild type |

molecular target: T2, BMPRIb receptor-Fc fusion; experiment: as above

| Binder | BMPRIb binding (relative to wild type = 1.0) |
| --- | --- |
| B1 | 0.65 relative to wild type |
| B2 | 1.41 relative to wild type |
| B3 | 0.64 relative to wild type |
| B4 | 0.68 relative to wild type |
| B5 | 0.98 relative to wild type |
| B6 | 0.46 relative to wild type |
| B7 | 0.85 relative to wild type |
| B8 | 0.43 relative to wild type |
| B9 | 0.77 relative to wild type |
| B10 | 0.37 relative to wild type |
| B11 | 1.09 relative to wild type |
| B12 | 0.8 relative to wild type |
| B13 | 2.03 relative to wild type |
| B14 | 1.03 relative to wild type |
| B15 | 1.36 relative to wild type |
| B16 | 2.78 relative to wild type |
| B17 | 3.95 relative to wild type |
| B18 | 0.52 relative to wild type |
| B19 | 0.55 relative to wild type |
| B20 | 0.85 relative to wild type |
| B21 | 3.58 relative to wild type |
| B22 | 1.16 relative to wild type |
| B23 | 3.74 relative to wild type |
| B24 | 0.81 relative to wild type |
